Laboratory results as given in patent US20100229252, “MEGANUCLEASE VARIANTS CLEAVING A DNA TARGET SEQUENCE FROM THE HUMAN HEMOGLOBIN BETA GENE AND USES THEREOF” (CELLECTIS, published 2010).
Residue numbers refer to the chain shown, from its start.

T1: I-CreI heterodimer HBB8.3_I3 / HBB8.4_B4 (Chlamydomonas reinhardtii, UniProt P05725;P05725 SEQ:1-167,SEQ:1-167)
T1 chain 1: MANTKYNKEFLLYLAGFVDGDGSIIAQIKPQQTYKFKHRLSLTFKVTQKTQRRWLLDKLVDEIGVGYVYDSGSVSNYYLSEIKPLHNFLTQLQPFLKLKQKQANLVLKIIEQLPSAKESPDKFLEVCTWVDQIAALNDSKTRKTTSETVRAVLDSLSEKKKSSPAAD
T1 chain 2: T1 chain 1 with G20S, Q31N, T33S, Y34T, S41Q, K45D, L55F, Y69A, N76K, Y78R

T2: I-CreI heterodimer HBB8.3_K3 / HBB8.4_B4 (Chlamydomonas reinhardtii, UniProt P05725;P05725 SEQ:1-167,SEQ:1-167)
T2 chain 1: T1 chain 1 with G20S, L55F, Y78I
T2 chain 2: T1 chain 1 with G20S, Q31N, T33S, Y34T, S41Q, K45D, L55F, Y69A, N76K, Y78R

T3: I-CreI heterodimer HBB8.3_J3 / HBB8.4_B4 (Chlamydomonas reinhardtii, UniProt P05725;P05725 SEQ:1-167,SEQ:1-167)
T3 chain 1: T1 chain 1 with K45Q, L55F, Y69A, Y78R, F88L
T3 chain 2: T1 chain 1 with G20S, Q31N, T33S, Y34T, S41Q, K45D, L55F, Y69A, N76K, Y78R

T4: I-CreI heterodimer HBB8.3_I3 / HBB8.4_D4 (Chlamydomonas reinhardtii, UniProt P05725;P05725 SEQ:1-167,SEQ:1-167)
T4 chain 1: T1 chain 1
T4 chain 2: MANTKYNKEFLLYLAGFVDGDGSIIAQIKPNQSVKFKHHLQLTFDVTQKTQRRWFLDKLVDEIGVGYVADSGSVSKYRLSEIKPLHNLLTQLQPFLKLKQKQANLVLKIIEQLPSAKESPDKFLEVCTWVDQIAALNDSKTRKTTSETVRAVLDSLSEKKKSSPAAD

T5: I-CreI heterodimer HBB8.3_C3 / HBB8.4_C4 (Chlamydomonas reinhardtii, UniProt P05725;P05725 SEQ:1-167,SEQ:1-167)
T5 chain 1: T1 chain 1 with Q31N, T33S, Y34G, R39K, L55F, I133V
T5 chain 2: T4 chain 2 with G20S, H39R, L88F

T6: I-CreI heterodimer HBB8.3_E3 / HBB8.4_A4 (Chlamydomonas reinhardtii, UniProt P05725;P05725 SEQ:1-167,SEQ:1-167)
T6 chain 1: T1 chain 1 with G20S, L55F, V65I
T6 chain 2: T4 chain 2 with Q132R

T7: I-CreI heterodimer HBB8.3_I3 / HBB8.4_C4 (Chlamydomonas reinhardtii, UniProt P05725;P05725 SEQ:1-167,SEQ:1-167)
T7 chain 1: T1 chain 1
T7 chain 2: T4 chain 2 with G20S, H39R, L88F

T8: I-CreI heterodimer HBB8.3_J3 / HBB8.4_C4 (Chlamydomonas reinhardtii, UniProt P05725;P05725 SEQ:1-167,SEQ:1-167)
T8 chain 1: T1 chain 1 with K45Q, L55F, Y69A, Y78R, F88L
T8 chain 2: T4 chain 2 with G20S, H39R, L88F

T9: I-CreI heterodimer HBB8.3_D3 / HBB8.4_D4 (Chlamydomonas reinhardtii, UniProt P05725;P05725 SEQ:1-167,SEQ:1-167)
T9 chain 1: T1 chain 1 with G20S, Q31N, T33S, Y34G, R39K, L55F, E118G
T9 chain 2: T4 chain 2

T10: I-CreI heterodimer HBB8.3_I3 / HBB8.4_A4 (Chlamydomonas reinhardtii, UniProt P05725;P05725 SEQ:1-167,SEQ:1-167)
T10 chain 1: T1 chain 1
T10 chain 2: T4 chain 2 with Q132R

T11: I-CreI heterodimer HBB8.3_B3 / HBB8.4_C4 (Chlamydomonas reinhardtii, UniProt P05725;P05725 SEQ:1-167,SEQ:1-167)
T11 chain 1: T1 chain 1 with L55F, V106A, L153Q
T11 chain 2: T4 chain 2 with G20S, H39R, L88F

B1: HBB8 (dsDNA)
DNA 1: CTGACTCCTGTGGAGAAGTCTG
DNA 2: CAGACTTCTCCACAGGAGTCAG
B2: HBB6 (dsDNA)
DNA 1: CTGACTCCTGAGGAGAAGTCTG
DNA 2: CAGACTTCTCCTCAGGAGTCAG

What was measured:
Assay in all cases: cell_activity; CHO extrachromosomal LacZ assay
[1] = target: T1, I-CreI heterodimer HBB8.3_I3 / HBB8.4_B4
[2] = target: T2, I-CreI heterodimer HBB8.3_K3 / HBB8.4_B4
[3] = target: T3, I-CreI heterodimer HBB8.3_J3 / HBB8.4_B4
[4] = target: T4, I-CreI heterodimer HBB8.3_I3 / HBB8.4_D4
[5] = target: T5, I-CreI heterodimer HBB8.3_C3 / HBB8.4_C4
[6] = target: T6, I-CreI heterodimer HBB8.3_E3 / HBB8.4_A4
[7] = target: T7, I-CreI heterodimer HBB8.3_I3 / HBB8.4_C4
[8] = target: T8, I-CreI heterodimer HBB8.3_J3 / HBB8.4_C4
[9] = target: T9, I-CreI heterodimer HBB8.3_D3 / HBB8.4_D4
[10] = target: T10, I-CreI heterodimer HBB8.3_I3 / HBB8.4_A4
[11] = target: T11, I-CreI heterodimer HBB8.3_B3 / HBB8.4_C4

Binder | activity [1] [absorbance units] | activity [2] [absorbance units] | activity [3] [absorbance units] | activity [4] [absorbance units] | activity [5] [absorbance units] | activity [6] [absorbance units] | activity [7] [absorbance units] | activity [8] [absorbance units] | activity [9] [absorbance units] | activity [10] [absorbance units] | activity [11] [absorbance units]
B1 | 2.26 | 2.06 | 2.47 | 1.57 | 2.62 | 2.52 | 2.42 | 2.21 | 2 | 1.15 | 2.32
B2 | 1.88 | 1.57 | 1.75 | 0.12 | 1.87 | 2.04 | 2.36 | 1.88 | 1.09 | 0.45 | 1.86
